The assay has as its target T1, human gastric inhibitory peptide receptor (hGIPR) (Homo sapiens, UniProt P48546).
T1 construct: expressed in transfected cells; host or cells: HEK293
T1 sequence (P48546 22-466): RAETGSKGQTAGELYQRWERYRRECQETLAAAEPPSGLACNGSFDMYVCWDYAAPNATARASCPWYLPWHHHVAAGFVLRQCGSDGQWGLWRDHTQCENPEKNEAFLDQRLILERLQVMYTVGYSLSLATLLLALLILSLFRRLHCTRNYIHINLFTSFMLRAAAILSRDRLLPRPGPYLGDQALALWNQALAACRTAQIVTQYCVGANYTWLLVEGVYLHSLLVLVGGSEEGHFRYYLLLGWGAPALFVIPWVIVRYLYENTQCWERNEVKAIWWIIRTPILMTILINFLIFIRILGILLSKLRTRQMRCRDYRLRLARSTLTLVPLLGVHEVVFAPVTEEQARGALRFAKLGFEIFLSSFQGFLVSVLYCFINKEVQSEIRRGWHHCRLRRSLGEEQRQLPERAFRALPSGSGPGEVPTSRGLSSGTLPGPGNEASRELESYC
Kind of assay: cAMP pharmacological functional assay in presence of 0.1% casein, hGIPR. The assay is classed as cell-based. The settings on record: ratio of hGIPR to hGLP1R cAMP EC50 ratios.

For the substance “Y-Aib-EGT-αMeF(2F)-TSDYSI-αMeL-LDEK((2-[2-(2-Amino-ethoxy)-ethoxy]-acetyl)2-(γGlu)-CO—(CH2)18—CO2H)AQ-Aib-EFI-Aad-YLIEGGPSSGAPPPS-NH2 (YXEGTXTSDYSIXLDEKAQXEFIXYLIEGGPSSGAPPPS; Aib, Aad, αMeF(2F), αMeL; acylated lysine C20 diacid; amide; (2)..(2) Xaa at position 2 is Aib; (6)..(6) Xaa at position 6 is alpha-methyl-Phe(2F); (13)..(13) Xaa at position 13 is alpha-methyl-Leu; MOD_RES (17)..(17) Lys at position 17 is chemically modified by conjugation of the epsilon-amino group of the Lys side chain with (2-[2-(2-amino-ethoxy)-ethoxy]-acetyl)2-(gamma-Glu)-CO-(CH2)18- CO2H; (20)..(20) Xaa at position 20 is Aib; (24)..(24) Xaa at positi) [Peptide 147]”, the “[hGIPR/hGLP1R] EC50 Ratio” value amounted to 3.66. With “Y-Aib-EGT-αMeF(2F)-TSDYSI-αMeL-LDEK((2-[2-(2-Amino-ethoxy)-ethoxy]-acetyl)2-(γGlu)-CO—(CH2)18—CO2H)AQ-Aib-EFI-Aib-YLIEGGPSSGAPPPS-NH2 (YXEGTXTSDYSIXLDEKAQXEFIXYLIEGGPSSGAPPPS; Aib, αMeF(2F), αMeL; acylated lysine C20 diacid; amide; (2)..(2) Xaa at position 2 is Aib; (6)..(6) Xaa at position 6 is alpha-methyl-Phe(2F); (13)..(13) Xaa at position 13 is alpha-methyl-Leu; MOD_RES (17)..(17) Lys at position 17 is chemically modified by conjugation of the epsilon-amino group of the Lys side chain with (2-[2-(2-amino-ethoxy)-ethoxy]-acetyl)2-(gamma-Glu)-CO-(CH2)18- CO2H; (20)..(20) Xaa at position 20 is Aib; (24)..(24) Xaa at positi) [Peptide 152]” the figure was 5.31; with “Y-Aib-EGT-αMeF(2F)-TSDYSI-αMeL-LDEK((2-[2-(2-Amino-ethoxy)-ethoxy]-acetyl)2-(γGlu)-CO—(CH2)18—CO2H)AQ-Aib-EFIAYLIEGGPSSGAPPPS-NH2 (YXEGTXTSDYSIXLDEKAQXEFIAYLIEGGPSSGAPPPS; Aib, αMeF(2F), αMeL; acylated lysine C20 diacid; amide; (2)..(2) Xaa at position 2 is Aib; (6)..(6) Xaa at position 6 is alpha-methyl-Phe(2F); (13)..(13) Xaa at position 13 is alpha-methyl-Leu; MOD_RES (17)..(17) Lys at position 17 is chemically modified by conjugation of the epsilon-amino group of the Lys side chain with (2-[2-(2-amino-ethoxy)-ethoxy]-acetyl)2-(gamma-Glu)-CO-(CH2)18- CO2H; (20)..(20) Xaa at position 20 is Aib; MOD_RES (39)..(39) Ser a) [Peptide 148]”, 3.14.

As for “Y-Aib-EGT-αMeF(2F)-TSDYSI-αMeL-LDEK((2-[2-(2-Amino-ethoxy)-ethoxy]-acetyl)2-(γGlu)-CO—(CH2)18—CO2H)AQ-Aib-EFIE-αMeY-LIEGGPSSGAPPPS-NH2 (YXEGTXTSDYSIXLDEKAQXEFIEXLIEGGPSSGAPPPS; Aib, αMeF(2F), αMeL, αMeY; lipidated K; amide; (2)..(2) Xaa at position 2 is Aib; (6)..(6) Xaa at position 6 is alpha-methyl-Phe(2F); (13)..(13) Xaa at position 13 is alpha-methyl-Leu; MOD_RES (17)..(17) Lys at position 17 is chemically modified by conjugation of the epsilon-amino group of the Lys side chain with (2-[2-(2-amino-ethoxy)-ethoxy]-acetyl)2-(gamma-Glu)-CO-(CH2)18- CO2H; (20)..(20) Xaa at position 20 is Aib; (25)..(25) Xaa at positi) [Peptide 223]”, the “[hGIPR/hGLP1R] EC50 Ratio” value is 3.05. For “Y-Aib-EGT-αMeF(2F)-TSDYSI-αMeL-LDEK((2-[2-(2-Amino-ethoxy)-ethoxy]-acetyl)2-(γGlu)-CO—(CH2)18—CO2H)AQ-Aib-EFIEYLIEGG-NH2 (YXEGTXTSDYSIXLDEKAQXEFIEYLIEGG; Aib, αMe residues, C20 diacid lipidation, C-amide; (2)..(2) Xaa at position 2 is Aib; (6)..(6) Xaa at position 6 is alpha-methyl-Phe(2F); (13)..(13) Xaa at position 13 is alpha-methyl-Leu; MOD_RES (17)..(17) Lys at position 17 is chemically modified by conjugation of the epsilon-amino group of the Lys side chain with (2-[2-(2-amino-ethoxy)-ethoxy]-acetyl)2-(gamma-Glu)-CO-(CH2)18- CO2H; (20)..(20) Xaa at position 20 is Aib; MOD_RES (30)..(30) Gly a) [Peptide 103]”, the “[hGIPR/hGLP1R] EC50 Ratio” value is reported as 3.07. As to “Y-Aib-EGT-αMeF(2F)-TSDYSI-αMeL-LDEK((2-[2-(2-Amino-ethoxy)-ethoxy]-acetyl)2-(γGlu)-CO—(CH2)18—CO2H)AQ-Aib-EFIEYLIEGGPSSGAPPPS-NH2 (YXEGTXTSDYSIXLDEKAQXEFIEYLIEGGPSSGAPPPS; Aib, αMeF(2F), αMeL; acylated lysine C20 diacid; amide; (2)..(2) Xaa at position 2 is Aib; (6)..(6) Xaa at position 6 is alpha-methyl-Phe(2F); (13)..(13) Xaa at position 13 is alpha-methyl-Leu; MOD_RES (17)..(17) Lys at position 17 is chemically modified by conjugation of the epsilon-amino group of the Lys side chain with (2-[2-(2-amino-ethoxy)-ethoxy]-acetyl)2-(gamma-Glu)-CO-(CH2)18- CO2H; (20)..(20) Xaa at position 20 is Aib; MOD_RES (39)..(39) Ser a) [Peptide 118]”, the “[hGIPR/hGLP1R] EC50 Ratio” value is 3.03. With “Y-Aib-EGT-αMeF(2F)-TSDYSI-αMeL-LDEK((2-[2-(2-Amino-ethoxy)-ethoxy]-acetyl)2-(γGlu)-CO—(CH2)18—CO2H)AQ-Aib-EFIHYLIEGGPSSGAPPPS-NH2 (YXEGTXTSDYSIXLDEKAQXEFIHYLIEGGPSSGAPPPS; Aib, αMeF(2F), αMeL; acylated lysine C20 diacid; amide; (2)..(2) Xaa at position 2 is Aib; (6)..(6) Xaa at position 6 is alpha-methyl-Phe(2F); (13)..(13) Xaa at position 13 is alpha-methyl-Leu; MOD_RES (17)..(17) Lys at position 17 is chemically modified by conjugation of the epsilon-amino group of the Lys side chain with (2-[2-(2-amino-ethoxy)-ethoxy]-acetyl)2-(gamma-Glu)-CO-(CH2)18- CO2H; (20)..(20) Xaa at position 20 is Aib; MOD_RES (39)..(39) Ser a) [Peptide 153]”, the “[hGIPR/hGLP1R] EC50 Ratio” value is 3.39. In the case of “Y-Aib-EGT-αMeF(2F)-TSDYSI-αMeL-LDEK((2-[2-(2-Amino-ethoxy)-ethoxy]-acetyl)2-(γGlu)-CO—(CH2)18—CO2H)AQ-Aib-EFIPYLIEGGPSSGAPPPS-NH2 (YXEGTXTSDYSIXLDEKAQXEFIPYLIEGGPSSGAPPPS; Aib, αMeF(2F), αMeL; acylated lysine C20 diacid; amide; (2)..(2) Xaa at position 2 is Aib; (6)..(6) Xaa at position 6 is alpha-methyl-Phe(2F); (13)..(13) Xaa at position 13 is alpha-methyl-Leu; MOD_RES (17)..(17) Lys at position 17 is chemically modified by conjugation of the epsilon-amino group of the Lys side chain with (2-[2-(2-amino-ethoxy)-ethoxy]-acetyl)2-(gamma-Glu)-CO-(CH2)18- CO2H; (20)..(20) Xaa at position 20 is Aib; MOD_RES (39)..(39) Ser a) [Peptide 151]” it was 9.42; in that of “Y-Aib-EGT-αMeF(2F)-TSDYSI-αMeL-LDEK((2-[2-(2-Amino-ethoxy)-ethoxy]-acetyl)2-(γGlu)-CO—(CH2)18—CO2H)AQ-Aib-EFISYLIEGGPSSGAPPPS-NH2 (YXEGTXTSDYSIXLDEKAQXEFISYLIEGGPSSGAPPPS; Aib, αMeF(2F), αMeL; acylated lysine C20 diacid; amide; (2)..(2) Xaa at position 2 is Aib; (6)..(6) Xaa at position 6 is alpha-methyl-Phe(2F); (13)..(13) Xaa at position 13 is alpha-methyl-Leu; MOD_RES (17)..(17) Lys at position 17 is chemically modified by conjugation of the epsilon-amino group of the Lys side chain with (2-[2-(2-amino-ethoxy)-ethoxy]-acetyl)2-(gamma-Glu)-CO-(CH2)18- CO2H; (20)..(20) Xaa at position 20 is Aib; MOD_RES (39)..(39) Ser a) [Peptide 150]”, 3.34.

These data come from patent publication US12295987B2, “Method of using a GIP/GLP1 co-agonist for diabetes” (Eli Lilly and Company, priority 2018, dated 2025).
